Source: patent US20230012273A1 (Boehringer Ingelheim, published 2023)
Where two headings read alike, the source gives them in different places.

T1: mouse SIRPα extracellular domain + His-tag (NP_031573) (mouse, UniProt P97797 32-373)
T1 chain: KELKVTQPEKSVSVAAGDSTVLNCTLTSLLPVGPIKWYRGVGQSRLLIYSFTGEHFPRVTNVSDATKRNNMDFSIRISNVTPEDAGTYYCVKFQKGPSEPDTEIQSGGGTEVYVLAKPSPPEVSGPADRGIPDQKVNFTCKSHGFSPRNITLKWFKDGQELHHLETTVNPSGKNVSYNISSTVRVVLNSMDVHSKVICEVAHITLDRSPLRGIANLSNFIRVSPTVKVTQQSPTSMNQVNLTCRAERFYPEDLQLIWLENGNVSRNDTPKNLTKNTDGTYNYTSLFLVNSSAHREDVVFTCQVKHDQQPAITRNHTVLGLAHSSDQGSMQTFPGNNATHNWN

T2: cynomolgus SIRPα extracellular domain + His-tag (NP_001271679) (cynomolgus monkey)
T2 construct: also called CySIRPα NP_001271679; cynoSIRPα
T2 chain: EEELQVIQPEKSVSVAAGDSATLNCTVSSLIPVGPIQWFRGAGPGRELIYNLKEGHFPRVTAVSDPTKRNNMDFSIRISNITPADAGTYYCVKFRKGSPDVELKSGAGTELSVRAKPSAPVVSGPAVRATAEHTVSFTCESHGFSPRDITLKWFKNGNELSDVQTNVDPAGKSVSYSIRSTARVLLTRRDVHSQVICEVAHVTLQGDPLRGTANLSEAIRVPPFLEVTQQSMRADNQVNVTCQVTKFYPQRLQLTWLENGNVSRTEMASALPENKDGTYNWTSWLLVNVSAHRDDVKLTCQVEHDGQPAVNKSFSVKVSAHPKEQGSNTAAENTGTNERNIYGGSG

T3: cynomolgus SIRPα extracellular domain + His-tag (XP_015313155) (cynomolgus monkey)
T3 construct: also called CySIRPα XP_015313155; cynoSIRPα
T3 chain: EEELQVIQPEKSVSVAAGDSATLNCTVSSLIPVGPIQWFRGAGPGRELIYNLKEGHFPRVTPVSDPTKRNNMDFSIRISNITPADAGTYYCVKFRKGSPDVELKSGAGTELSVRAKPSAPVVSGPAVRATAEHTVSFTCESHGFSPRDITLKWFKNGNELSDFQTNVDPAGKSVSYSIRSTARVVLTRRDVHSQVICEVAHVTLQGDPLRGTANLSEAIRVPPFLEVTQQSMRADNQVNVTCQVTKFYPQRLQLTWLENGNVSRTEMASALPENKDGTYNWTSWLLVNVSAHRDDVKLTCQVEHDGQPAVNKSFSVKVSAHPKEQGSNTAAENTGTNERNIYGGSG

T4: cynomolgus SIRPα extracellular domain + His-tag (EGM_02252) (cynomolgus monkey)
T4 construct: also called CySIRPα EGM_02252; cynoSIRPα
T4 chain: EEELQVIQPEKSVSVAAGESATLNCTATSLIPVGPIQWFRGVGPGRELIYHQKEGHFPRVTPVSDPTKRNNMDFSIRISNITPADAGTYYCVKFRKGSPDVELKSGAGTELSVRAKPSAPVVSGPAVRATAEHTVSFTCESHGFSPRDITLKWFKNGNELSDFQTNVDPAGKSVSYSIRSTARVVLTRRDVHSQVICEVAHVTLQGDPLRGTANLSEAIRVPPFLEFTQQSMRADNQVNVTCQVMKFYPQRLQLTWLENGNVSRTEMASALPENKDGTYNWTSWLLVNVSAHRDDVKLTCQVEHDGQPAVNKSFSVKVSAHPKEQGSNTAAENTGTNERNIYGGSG

T5: cynomolgus SIRPβ1v3 extracellular domain + His-tag (XP_005568593) (cynomolgus monkey)
T5 construct: also called Cyno SIRPβ1v3; cynoSIRPβ1v3
T5 chain: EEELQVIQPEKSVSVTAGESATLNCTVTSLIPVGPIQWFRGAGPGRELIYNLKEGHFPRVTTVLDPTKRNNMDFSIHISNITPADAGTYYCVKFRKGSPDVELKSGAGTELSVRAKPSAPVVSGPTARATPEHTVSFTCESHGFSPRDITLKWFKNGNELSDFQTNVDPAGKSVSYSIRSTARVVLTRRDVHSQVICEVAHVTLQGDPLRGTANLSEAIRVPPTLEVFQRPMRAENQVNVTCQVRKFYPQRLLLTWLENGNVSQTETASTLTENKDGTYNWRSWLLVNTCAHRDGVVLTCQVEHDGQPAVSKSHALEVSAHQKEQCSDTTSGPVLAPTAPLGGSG

T6: cynomolgus SIRPγ extracellular domain + His-tag (XP_005568591) (cynomolgus monkey, UniProt Q9P1W8 29-359 (human entry))
T6 construct: also called Cyno SIRPγ; cynoSIRPγ
T6 chain: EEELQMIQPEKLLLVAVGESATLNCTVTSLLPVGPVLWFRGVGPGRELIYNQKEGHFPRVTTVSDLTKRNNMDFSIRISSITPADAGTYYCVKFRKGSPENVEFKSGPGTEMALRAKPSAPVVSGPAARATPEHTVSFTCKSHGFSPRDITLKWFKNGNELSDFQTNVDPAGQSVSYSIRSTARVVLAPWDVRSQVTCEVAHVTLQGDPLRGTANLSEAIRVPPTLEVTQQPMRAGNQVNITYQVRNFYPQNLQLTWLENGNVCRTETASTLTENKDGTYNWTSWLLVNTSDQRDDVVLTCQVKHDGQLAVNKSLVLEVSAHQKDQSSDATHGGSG


Legend:
[1] = target: T1, mouse SIRPα extracellular domain + …; test: SPR, Ab captured, ECD-His analyte
Description: (§1) The binding affinity of anti-SIRPα antibodies to the various SIRPα analytes is determined by surface plasmon resonance (SPR) using a ProteOn XPR36 (Bio-Rad). The running buffer for this experiment and all dilutions (except where stated) are done in 1×HBS-EP+. […] The sensorchip is deactivated with 1M ethanolamine HCl for 420 sec at a flowrate of 10 μl/min.
(§2) The analyte is injected over the captured antibody for 300 sec at a flowrate of 30 μl/min. The dissociation is done for 600 sec. Two-fold serial dilutions of each SIRP protein (Extracellular Domain+His-Tag) are injected as analyte with the highest concentrations indicated in table 36 below.

[2] = target: T2, cynomolgus SIRPα extracellular domain + …; test: SPR, Ab captured, ECD-His analyte
Description: as §1, §2

[3] = target: T7, human SIRPαV1 extracellular domain + His-tag (NP_542970.1) (human, UniProt P78324 31-373); test: SPR, Ab captured, ECD-His analyte
T7 construct: also called hSIRPαV1; HuSIRPαV1
Description: as §1, §2

[4] = target: T8, human SIRPαV2 extracellular domain + His-tag (CAA71403.1) (human, UniProt P78324 31-373); test: SPR, Ab captured, ECD-His analyte
T8 construct: also called hSIRPαV2; HuSIRPαV2
Description: as §1, §2

[5] = target: T9, human SIRPγ extracellular domain + His-tag (NP_061026.2) (human, UniProt Q9P1W8 29-360); test: SPR, Ab captured, ECD-His analyte
T9 construct: also called hSIRPγ; HuSIRPγ
Description: as §1, §2

[6] = target: T10, full-length human SIRPβL (NP_001129316.1) on cells (human, UniProt Q5TFQ8 30-398); test: flow cytometry, U937 SIRPα KO cells
T10 construct: on U937 SIRPα KO cells and Expi-CHO cells; also called βL WT; SIRPβ1v3
Description: Antibody binding to cells expressing full-length human SIRPβ1 (NP_006056.2) and SIRPβL (NP_001129316.1) is evaluated by flow cytometry. SIRPβ1- or SIRPβL-expressing U937^{SIRPα KO} cells are blocked with donkey IgG and incubated on ice with increasing concentrations of antibodies for 60 minutes, washed and stained with AF647-conjugated donkey F(ab′)₂ anti-human IgG secondary reagent. Cells are washed, fixed, and analyzed by flow cytometry. Median fluorescent intensity is determined and used as a measure of antibody binding.

[7] = target: T11, full-length human SIRPγ (NP_061026.2) on cells (human, UniProt Q9P1W8 29-387); test: flow cytometry, primary human CD3+ T cells
T11 construct: on CHO and Expi-CHO cells; endogenous on primary human CD3+ T cells; also called γ WT
Description: Antibody binding to primary human T cells expressing endogenous SIRPγ is evaluated by flow cytometry. Human peripheral blood mononuclear cells (PBMCs) are blocked with donkey IgG and incubated on ice with increasing concentrations of antibody for 60 minutes, washed and stained with AF647-conjugated donkey F(ab′)₂ anti-human IgG secondary reagent. […] Cells are washed, fixed, and analyzed by flow cytometry. Median fluorescent intensity of CD3+ gated population is determined and used as a measure of antibody binding.

[8] = target: full-length human SIRPβ1 D→H on Expi-CHO cells (human, UniProt O00241 30-398); test: flow cytometry, Expi-CHO cells
Description: These cells are blocked with donkey IgG and incubated on ice with increasing concentrations of antibodies for 60 minutes, washed and stained with AF647-conjugated donkey F(ab′)₂ anti-human IgG antibodies. Stained cells are washed, fixed, and analyzed by flow cytometry. Median fluorescent intensity is determined and used as a measure of antibody binding.

[9] = target: T12, human SIRPβL/SIRPβ1v3 extracellular domain + His-tag (NP_001129316.1) (human, UniProt Q5TFQ8 30-371); test: SPR, Ab captured, ECD-His analyte
T12 construct: also called hSIRPβ1v3; HuSIRPβ1v3
Description: as §1, §2

[10] = target: T9, human SIRPγ extracellular domain + …; test: SPR, Ab captured, ECD-His analyte; remark: listed apart in the source
Description: as §1, §2

[11] = target: T13, human SIRPβ1 extracellular domain + His-tag (NP_006056.2) (human, UniProt O00241 30-371); test: SPR, Ab captured, ECD-His analyte
T13 construct: also called hSIRPβ1; HuSIRPβ1
Description: as §1, §2

[12] = target: T3, cynomolgus SIRPα extracellular domain + …; test: SPR, Ab captured, ECD-His analyte
Description: as §1, §2

[13] = target: T4, cynomolgus SIRPα extracellular domain + …; test: SPR, Ab captured, ECD-His analyte
Description: as §1, §2

[14] = target: T5, cynomolgus SIRPβ1v3 extracellular …; test: SPR, Ab captured, ECD-His analyte
Description: as §1, §2

[15] = target: T6, cynomolgus SIRPγ extracellular domain + …; test: SPR, Ab captured, ECD-His analyte
Description: as §1, §2

[16] = target: T13, human SIRPβ1 extracellular domain + …; test: SPR, Ab captured, ECD-His analyte; remark: listed apart in the source
Description: as §1, §2

T7 sequence (P78324 other isoform, or with tags, fused parts or gaps): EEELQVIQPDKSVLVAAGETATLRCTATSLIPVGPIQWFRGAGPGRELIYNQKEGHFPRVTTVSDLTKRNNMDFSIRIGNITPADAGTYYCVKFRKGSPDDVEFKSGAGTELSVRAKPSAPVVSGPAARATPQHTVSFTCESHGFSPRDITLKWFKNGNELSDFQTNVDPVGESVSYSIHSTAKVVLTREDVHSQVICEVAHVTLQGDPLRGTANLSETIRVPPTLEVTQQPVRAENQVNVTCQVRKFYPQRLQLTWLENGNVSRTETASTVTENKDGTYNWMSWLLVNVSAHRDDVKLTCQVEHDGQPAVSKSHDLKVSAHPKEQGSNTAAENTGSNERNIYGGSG
T13 sequence (O00241 other isoform, or with tags, fused parts or gaps): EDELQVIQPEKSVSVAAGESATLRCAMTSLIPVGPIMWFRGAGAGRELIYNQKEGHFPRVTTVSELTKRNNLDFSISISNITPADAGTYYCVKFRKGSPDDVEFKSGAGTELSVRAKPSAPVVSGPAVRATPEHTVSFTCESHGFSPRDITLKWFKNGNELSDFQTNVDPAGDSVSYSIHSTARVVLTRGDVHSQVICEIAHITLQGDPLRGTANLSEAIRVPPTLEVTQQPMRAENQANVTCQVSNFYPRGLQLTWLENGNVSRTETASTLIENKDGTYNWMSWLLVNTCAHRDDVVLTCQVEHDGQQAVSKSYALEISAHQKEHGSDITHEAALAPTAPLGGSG
T8 sequence (P78324 other isoform, or with tags, fused parts or gaps): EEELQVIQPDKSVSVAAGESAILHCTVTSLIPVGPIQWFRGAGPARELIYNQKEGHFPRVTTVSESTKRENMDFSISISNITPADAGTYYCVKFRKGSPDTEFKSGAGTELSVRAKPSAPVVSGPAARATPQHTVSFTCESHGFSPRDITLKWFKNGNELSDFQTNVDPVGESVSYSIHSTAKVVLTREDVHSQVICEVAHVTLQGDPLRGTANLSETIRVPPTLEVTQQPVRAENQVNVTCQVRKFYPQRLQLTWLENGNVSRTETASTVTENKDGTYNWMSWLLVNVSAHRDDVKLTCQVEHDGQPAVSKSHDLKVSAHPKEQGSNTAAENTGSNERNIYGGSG
Sequence of full-length human SIRPβ1 D→H on Expi-CHO cells (O00241 30-398 D130H): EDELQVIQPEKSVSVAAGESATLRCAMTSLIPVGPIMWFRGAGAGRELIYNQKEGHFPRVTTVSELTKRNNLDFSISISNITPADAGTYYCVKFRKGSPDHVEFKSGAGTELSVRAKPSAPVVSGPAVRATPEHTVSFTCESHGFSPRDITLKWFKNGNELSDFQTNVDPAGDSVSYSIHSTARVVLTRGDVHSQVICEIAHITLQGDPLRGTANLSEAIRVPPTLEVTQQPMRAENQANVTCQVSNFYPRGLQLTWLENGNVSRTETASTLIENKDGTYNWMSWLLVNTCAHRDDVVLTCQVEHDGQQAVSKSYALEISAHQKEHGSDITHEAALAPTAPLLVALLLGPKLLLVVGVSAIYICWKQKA
T10 sequence (Q5TFQ8 30-398): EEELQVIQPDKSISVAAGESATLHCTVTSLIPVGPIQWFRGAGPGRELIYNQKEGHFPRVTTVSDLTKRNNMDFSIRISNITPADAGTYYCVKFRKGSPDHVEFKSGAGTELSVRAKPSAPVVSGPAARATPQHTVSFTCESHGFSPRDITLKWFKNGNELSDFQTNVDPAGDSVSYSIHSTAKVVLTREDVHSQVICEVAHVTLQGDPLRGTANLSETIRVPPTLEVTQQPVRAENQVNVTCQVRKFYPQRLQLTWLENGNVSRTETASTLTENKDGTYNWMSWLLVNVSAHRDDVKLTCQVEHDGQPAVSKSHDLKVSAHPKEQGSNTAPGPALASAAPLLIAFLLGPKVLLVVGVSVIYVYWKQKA
T9 sequence (Q9P1W8 29-360): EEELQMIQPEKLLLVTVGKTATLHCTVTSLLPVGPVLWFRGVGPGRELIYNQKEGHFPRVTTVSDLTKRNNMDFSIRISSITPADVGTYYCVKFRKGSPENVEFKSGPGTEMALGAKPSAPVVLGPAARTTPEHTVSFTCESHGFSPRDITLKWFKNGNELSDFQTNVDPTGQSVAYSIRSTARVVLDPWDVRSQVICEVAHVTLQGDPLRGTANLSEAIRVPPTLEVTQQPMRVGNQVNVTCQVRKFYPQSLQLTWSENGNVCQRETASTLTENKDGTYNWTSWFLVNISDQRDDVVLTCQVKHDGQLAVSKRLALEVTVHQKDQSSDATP
T11 sequence (Q9P1W8 29-387): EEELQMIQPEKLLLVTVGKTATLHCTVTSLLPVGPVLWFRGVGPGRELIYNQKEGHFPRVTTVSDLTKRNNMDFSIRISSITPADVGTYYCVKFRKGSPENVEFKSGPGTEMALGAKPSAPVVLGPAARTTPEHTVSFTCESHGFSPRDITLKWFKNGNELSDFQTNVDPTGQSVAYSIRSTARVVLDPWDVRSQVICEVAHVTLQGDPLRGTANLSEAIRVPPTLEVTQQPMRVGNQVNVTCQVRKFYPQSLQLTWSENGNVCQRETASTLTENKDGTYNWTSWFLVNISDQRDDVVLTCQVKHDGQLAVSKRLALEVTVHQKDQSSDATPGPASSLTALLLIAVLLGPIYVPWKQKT
T12 sequence (Q5TFQ8 other isoform, or with tags, fused parts or gaps): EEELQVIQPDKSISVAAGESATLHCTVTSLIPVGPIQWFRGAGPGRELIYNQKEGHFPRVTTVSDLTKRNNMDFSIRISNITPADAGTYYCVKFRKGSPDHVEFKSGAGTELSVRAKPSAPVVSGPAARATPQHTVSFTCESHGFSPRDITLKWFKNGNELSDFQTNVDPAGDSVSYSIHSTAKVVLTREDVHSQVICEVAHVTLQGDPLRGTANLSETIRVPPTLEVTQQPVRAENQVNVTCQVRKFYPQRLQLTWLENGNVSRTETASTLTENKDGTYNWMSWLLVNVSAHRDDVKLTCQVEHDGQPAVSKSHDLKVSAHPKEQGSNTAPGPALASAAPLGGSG

binding result [1]	binding result [2]	Kd [3] [nM]	Kd [4] [nM]	binding result [6]	binding result [7]	binding result [8]	Kd [16] [nM]	Binder	further results
no binding	no binding (tested: 1000 nM)	17.4	71.5	–	–	–	–	Antibody B (antibody, human IgG1, kappa, L234A L235A, V domains shown) VH: QVQLVQSGAEVKKPGASVKVSCKASGYTFTGNYMHWVRQAPGQGLEWMGWINPNSGGTNYAQKFQGRVTMTRDTSISTAYMELSRLRSDDTAVYYCVSGSGWYENYYYYGMDVWGQGTTVTVSS VL: DIQMTQSPSSVSASVGDRVTITCRASQGISSWLAWYQQKPGKAPKLLIYAESSLQSGVPSRFSGSGSGTDFTLTISSLQPEDFATYYCQQANSFPLTFGGGTKVEIKR	binding result [5]: no binding (tested: 1000 nM)
–	–	–	–	no binding	no binding	–	–	Antibody A11 (antibody, human IgG4 S228P, kappa) heavy: not shown light: DIQMTQSPSSLSASVGDRVTITCRASQDINNYLAWFQQKPGKAPKSLIYTASSLHSGVPSKFSGSGSGTDFTLTISSLQPEDFATYYCQQYVSYPYTFGQGTKLEIKRTVAAPSVFIFPPSDEQLKSGTASVVCLLNNFYPREAKVQWKVDNALQSGNSQESVTEQDSKDSTYSLSSTLTLSKADYEKHKVYACEVTHQGLSSPVTKSFNRGEC	–
–	–	–	–	no binding	no binding	no binding	–	Antibody A4 (antibody, human IgG1, kappa, L234A L235A, V domains shown) VH: EVQLVESGGGLVQPGGSLRLSCAASGFTLSSYDMHWVRQAPGKGLEWVSAIGTAGDTYYTGSVKGRFTISRENAKNSLYLQMNSLRAADTAVYYCVRGGVWDDAFDIWGQGTMVTVSS VL: DIQMTQSPSSLSASVGDRVTITCRASQGINNYAAWFQQKPGKAPKSLIYTASSLHSGVPSKFSGSGSGTDFTLTISSLQPEDFATYYCQQYVSYPYTFGQGTKLEIKR	binding result [9]: no binding (tested: 100 nM); binding result [10]: no binding (tested: 1000 nM); Kd [11]: 67.2 nM; Kd [12]: 374 nM; Kd [13]: 508 nM; Kd [14]: 460 nM; binding result [15]: no binding (tested: 1000 nM)
no binding	no binding (tested: 1000 nM)	4.04	4.05	–	–	no binding	16.5	Antibody D (antibody, human IgG1, kappa, L234A L235A, V domains shown) VH: EVQLVESGGGLVQPGGSLRLSCAASGFTFSSFDMHWVRQPTGKGLEWVSTIGIAGDTYFPGSVKGRFTISRENAKNSLYLQMNSLRAGDTAVYYCARGGNWDDALDIWGQGTMVTVSS VL: DIQMTQSPSSLSASVGDRVTITCRASQDINNYLAWFQQKPGKAPKSLIYTASSLQSGVPSKFSGSGSGTDFTLTISSLQPEDFATYYCQQYNTYPYTFGQGTKLEIKR	–
no binding	–	0.627	0.0969	–	–	no binding	2.14	Antibody C (antibody, human IgG1, kappa, L234A L235A, V domains shown) VH: EVQLVESGGGLVQPGGSLRLSCAASGFTFSSYDMHWVRQATGKGLEWVSVIGIAGDTYYPGSVKGRFTISRENAKNSLYLQMNSLRVGDTAVYYCARGGSWDDAFDIWGQGTMVTVSS VL: DIQMTQSPSSLSASIGDKVTITCRASQDINNYLAWFQQKPGKAPKSLIYTASSLQSGVPSKFSGSGSGTDFTLTISSLQPEDFATYYCQQYVSYPYTFGQGTKLEIKR	Kd [2]: 14.3 nM
